T1: human wild-type Sema3A of SEQ ID NO: 600, expressed by HEK293 cells (human, UniProt Q14563 22-771, limits assumed)
T1 sequence: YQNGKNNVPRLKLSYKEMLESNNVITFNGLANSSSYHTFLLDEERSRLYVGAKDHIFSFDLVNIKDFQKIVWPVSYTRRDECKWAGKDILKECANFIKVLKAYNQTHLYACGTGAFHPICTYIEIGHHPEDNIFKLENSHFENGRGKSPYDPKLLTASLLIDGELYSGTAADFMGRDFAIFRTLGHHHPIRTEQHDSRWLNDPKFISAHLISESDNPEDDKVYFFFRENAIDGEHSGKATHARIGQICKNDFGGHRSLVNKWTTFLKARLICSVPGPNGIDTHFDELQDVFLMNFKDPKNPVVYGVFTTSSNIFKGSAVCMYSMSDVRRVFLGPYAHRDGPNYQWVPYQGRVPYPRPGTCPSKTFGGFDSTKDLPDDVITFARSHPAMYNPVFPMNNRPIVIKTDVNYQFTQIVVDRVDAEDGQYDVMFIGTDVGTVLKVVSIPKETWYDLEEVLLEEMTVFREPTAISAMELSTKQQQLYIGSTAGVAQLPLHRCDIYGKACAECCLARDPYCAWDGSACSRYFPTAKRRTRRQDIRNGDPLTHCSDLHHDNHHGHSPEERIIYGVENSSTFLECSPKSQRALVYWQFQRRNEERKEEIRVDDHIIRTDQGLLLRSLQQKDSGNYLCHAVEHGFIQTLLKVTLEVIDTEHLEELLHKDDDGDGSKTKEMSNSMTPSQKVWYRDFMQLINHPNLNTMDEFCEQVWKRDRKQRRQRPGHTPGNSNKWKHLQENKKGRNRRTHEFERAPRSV

T2: Human Semaphorin3A-Sema Domain, TPP-19068 (human, UniProt Q14563 21-569)
T2 construct: produced inhouse in HEK293-6E; also called human monovalent Sema3A domain
T2 sequence: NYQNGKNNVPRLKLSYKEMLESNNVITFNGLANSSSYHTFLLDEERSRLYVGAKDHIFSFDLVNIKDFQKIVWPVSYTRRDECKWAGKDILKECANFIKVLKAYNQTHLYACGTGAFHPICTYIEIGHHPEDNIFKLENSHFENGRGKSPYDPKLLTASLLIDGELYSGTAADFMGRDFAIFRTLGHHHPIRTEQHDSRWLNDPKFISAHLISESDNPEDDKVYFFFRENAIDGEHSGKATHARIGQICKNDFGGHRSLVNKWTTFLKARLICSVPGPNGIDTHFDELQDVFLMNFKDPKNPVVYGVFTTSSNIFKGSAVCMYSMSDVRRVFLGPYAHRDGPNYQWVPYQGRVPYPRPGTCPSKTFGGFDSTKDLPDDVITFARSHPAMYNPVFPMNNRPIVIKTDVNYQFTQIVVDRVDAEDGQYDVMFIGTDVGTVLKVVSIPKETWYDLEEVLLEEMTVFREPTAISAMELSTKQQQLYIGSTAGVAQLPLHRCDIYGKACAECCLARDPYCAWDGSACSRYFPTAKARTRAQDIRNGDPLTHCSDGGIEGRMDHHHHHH


Experiments:
[1] = target: T1, human wild-type Sema3A of SEQ ID NO: …; test: cell-based or functional assay
[2] = target: T2, Human Semaphorin3A-Sema Domain, …; test: SPR, 100 nM TPP-19068, binding experiment
Description: To assess the binding kinetics and affinity of anti-Sema3A antibodies as well as their species cross-reactivity profile, binding assays were conducted using surface plasmon resonance (SPR). Binding assays were performed on a Biacore T200 instrument or on a Biacore 8K+ instrument (Cytiva) at 25° C. using assay buffer HBS P+, 300 mM NaCl, 0.75 mM CaCl₂, 2.5 mM MgCl₂, 1 mg/ml BSA, 0.05% NaN₃. Antibodies were captured either via anti-human Fc IgGs (“Human antibody capture kit”, Order No. BR100839, Cytiva) or in case of Fc-tagged analytes by anti-human Fab IgGs (“Human Fab capture kit”, Order No. 28958325, Cytiva) covalently amine coupled to a Series S CM5 sensor chip (Cytiva). The amine coupling was carried out according to the manufacturer's instructions using 1-ethyl-3-(3-dimethylaminopropyl) carbodiimide hydrochloride (EDC), N-hydroxysuccinimide (NHS) and ethanolamine HCl, pH 8.5 (“Amine Coupling Kit” BR-1000-50, Cytiva.). For phage display hits Fc-tagged human and mouse Sema3A was used as analytes in a concentration range from 1.56-200 nM. Human, mouse, cynomolgus, rat, dog and pig monovalent Sema3A domain were used as analytes in a concentration series from […] in multi cycle kinetics mode or in 100 nM for binding analysis only. The sensor surface was regenerated with glycine pH 2.0 after each antigen injection. Obtained sensorgrams were double referenced (subtraction of reference flow cell signal and buffer injection) and were fitted to a 1:1 Langmuir binding model to derive kinetic data using the Biacore T200 Evaluation software.

[3] = target: T3, Human Semaphorin3A-Fc (R&D Systems), TPP-13211 (human); test: ELISA, signal on TPP-13211 divided by signal on TPP-19068
T3 construct: R&D Systems 1250-S3; also called recombinant human Sema3A-Fc chimera
Excerpt: In the in vivo situation Sema3A exists in both forms side by side.

[4] = target: T3, Human Semaphorin3A-Fc (R&D Systems), …; test: cell-based or functional assay
[5] = target: T1, human wild-type Sema3A of SEQ ID NO: …; test: cell-based or functional assay; remark: listed apart in the source

T3 sequence (chain, as listed by the source limits assumed): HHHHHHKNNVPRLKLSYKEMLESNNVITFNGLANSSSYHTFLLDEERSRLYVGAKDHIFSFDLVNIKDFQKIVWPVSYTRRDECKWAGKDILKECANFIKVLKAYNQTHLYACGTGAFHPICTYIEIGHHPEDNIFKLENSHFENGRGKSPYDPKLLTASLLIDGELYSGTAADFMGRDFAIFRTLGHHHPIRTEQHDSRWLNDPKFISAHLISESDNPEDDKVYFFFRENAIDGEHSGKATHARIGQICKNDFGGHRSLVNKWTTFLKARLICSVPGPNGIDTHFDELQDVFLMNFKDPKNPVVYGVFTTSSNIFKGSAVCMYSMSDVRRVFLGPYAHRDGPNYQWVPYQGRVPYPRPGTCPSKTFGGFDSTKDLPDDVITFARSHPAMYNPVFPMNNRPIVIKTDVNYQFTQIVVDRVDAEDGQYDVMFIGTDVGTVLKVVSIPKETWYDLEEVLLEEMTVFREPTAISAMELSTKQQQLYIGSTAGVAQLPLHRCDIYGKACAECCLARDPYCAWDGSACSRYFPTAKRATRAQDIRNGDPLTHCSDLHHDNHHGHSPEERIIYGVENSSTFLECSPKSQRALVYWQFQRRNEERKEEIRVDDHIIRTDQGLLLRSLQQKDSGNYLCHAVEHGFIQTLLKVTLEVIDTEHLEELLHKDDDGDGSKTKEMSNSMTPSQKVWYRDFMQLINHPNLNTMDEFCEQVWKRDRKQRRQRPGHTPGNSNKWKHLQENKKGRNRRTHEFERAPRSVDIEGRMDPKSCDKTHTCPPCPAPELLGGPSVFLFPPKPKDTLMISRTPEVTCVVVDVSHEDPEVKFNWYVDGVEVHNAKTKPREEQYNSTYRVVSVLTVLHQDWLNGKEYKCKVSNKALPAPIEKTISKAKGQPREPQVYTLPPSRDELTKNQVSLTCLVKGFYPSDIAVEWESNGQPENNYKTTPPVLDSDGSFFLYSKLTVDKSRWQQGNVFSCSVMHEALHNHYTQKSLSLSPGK

Row | EC50 (pM), HUVEC repulsion assay, second experiment [1] | EC50 (nM), GCC assay [4] | EC50 (pM), HUVEC repulsion assay [5] | Binder | other results
1 | 165 pM | – | – | TPP-30789 (antibody, human IgG1, kappa, V domains shown, prior art, WO 2020/225400; also called BI clone II; Böhringer (BI) Clone II) VH: EVQLVESGGGLVQPGGSLRLSCAASGFPFSSYYMSWVRQAPGKGLEWVSTIIKSGGYAYYPDSVKDRFTISRDNSKNTLYLQMSSLRAEDTAVYYCVRGGQGAMDYWGQGTTVTVSS VL: EIVLTQSPATLSLSPGERATLSCRASQSIGDYLHWYQQKPGQAPRLLIKYASQSISGIPARFSGSGSGTDFTLTITSLEPEDFAVYYCQQGYSFPYTFGGGTKLEIKR | Ratio ELISA binding TPP-13211/TPP-19068 [3]: 0.2
2 | 221 pM | – | – | TPP-30791 (antibody, human IgG1, kappa, V domains shown, prior art, WO 2020/225400; also called BI clone IV; Böhringer (BI) Clone IV) VH: EVQLVESGGGLLQLGGSLRLSCAASGFTFSSYYMSWVRQAPGKGLEWVSTIIKSGGYAYYPDSVKDRFTISRDNSKNTLNLQMNSLRAEDTAVYYCVKGGQGAMDYWGQGTTVTVSS VL: EIVLTQSPATLSLSPGERATLSCRASQSIGDYLHWYQQKPGQAPRLLIKYASQSISGIPARFSGSGSGTDFTLTISSLEPEDFAVYYCQQGYSFPYTFGGGTKLEIKR | Ratio ELISA binding TPP-13211/TPP-19068 [3]: 0.21
3 | > 20000 pM | – | – | TPP-11489 (antibody, human IgG1, lambda, human IgG1; also called Chiome; Chiome Prior Art (hIgG1)) heavy: not shown light: SYELTQPPSVSVSPGQTARITCSGGGSYTGSYYYGWYQQKPGQAPVTVIYYNNKRPSDIPERFSGSLSGTTNTLTISGVQAEDEADYYCGSADNSGDAFGTGTKVTVLGQPKAAPSVTLFPPSSEELQANKATLVCLISDFYPGAVTVAWKADSSPVKAGVETTTPSKQSNNKYAASSYLSLTPEQWKSHRSYSCQVTHEGSTVEKTVAPTECS | –
4 | – | 4.33 nM | 800 pM | TPP-15370 (antibody, human IgG1, lambda, V domains shown, human IgG1; also called IgG1, hit from panning; parental mAb) VH: EVQLLESGGGLVQPGGSLRLSCAASGFTFSSYGMHWVRQAPGKGLEWVSAIGTGGDTYYADSVMGRFTISRDNSKNTLYLQMNSLRAEDTAVYYCARRDDYTSRDAFDVWGQGTLVTVSS VL: not shown | –
5 | – | – | 113 pM | TPP-23341 (antibody, human IgG4 S228P, lambda, V domains shown) VH: EVQLLESGGGLVQPGGSLRLSCAASGFTFSSYAMSWVRQAPGKGLEWVSAIGYGGDTYYADSVKGRFTISRDNSKNTLYLQMNSLRAEDTAVYYCARRDDYTSRDAFDYWGQGTLVTVSS VL: not shown | –
6 | – | – | 123 pM | TPP-23375 (antibody, human IgG4 S228P, lambda, V domains shown) VH: EVQLLESGGGLVQPGGSLRLSCAASGFTFYSYAMSWVRQAPGKGLEWVSAIGYGGDTYYADSVKGRFTISRDNSKNTLYLQMNSLRAEDTAVYYCARRDDYTSRDAFDYWGQGTLVTVSS VL: not shown | –
7 | – | 2.19 nM | 77 pM | TPP-23374 (antibody, human IgG4 S228P, lambda, V domains shown) VH: EVQLLESGGGLVQPGGSLRLSCAASGFTFYSYAMSWVRQAPGKGLEWVSAIGYGGDTYYADSVKGRFTISRDNSKNTLYLQMNSLRAEDTAVYYCARRDDYTSRDAFDYWGQGTLVTVSS VL: not shown | –
8 | – | – | 180 pM | TPP-23373 (antibody, human IgG4 S228P, lambda, V domains shown) VH: EVQLLESGGGLVQPGGSLRLSCAASGFTFYSYAMSWVRQAPGKGLEWVSAIGYGGDTYYADSVKGRFTISRDNSKNTLYLQMNSLRAEDTAVYYCARRDDYTSRDAFDYWGQGTLVTVSS VL: not shown | –

More lines, now with the values behind:

Row | Binder | EC50 (pM), HUVEC repulsion assay, second experiment [1] | EC50 (nM), GCC assay [4] | EC50 (pM), HUVEC repulsion assay [5] | other results
9 | TPP-30788 (antibody, human IgG1, kappa, V domains shown, prior art, WO 2020/225400; also called BI clone I; Böhringer (BI) Clone I) VH: EVQLVESGGGLVQPGGSLRLSCAASGFTFSSYYMSWVRQAPGKGLEWVSTIIKSGGYAYYPDSVKDRFTISRDNSKNTLYLQMSSLRAEDTAVYYCVRGGQGAMDYWGQGTTVTVSS VL: EIVLTQSPATLSLSPGERATLSCRASQSIGDYLHWYQQKPGQAPRLLIKYASQSISGIPARFSGSGSGTDFTLTITSLEPEDFAVYYCQQGYSFPYTFGGGTKLEIKR | 104 pM | – | – | Kd [2]: 0.098 nM; Ratio ELISA binding TPP-13211/TPP-19068 [3]: 0.19
10 | TPP-30790 (antibody, human IgG1, kappa, V domains shown, prior art, WO 2020/225400; also called BI clone III; Böhringer (BI) Clone III) VH: EVQLVESGGGLVQLGGSLRLSCAASGFTFSSYYMSWVRQAPGKGLEWVSTIIKSGGYAYYPDSVKDRFTISRDNSKNTLYLQMNSLRAEDTAVYYCVKGGQGAMDYWGQGTTVTVSS VL: EIVLTQSPATLSLSPGERATLSCRASQSIGDYLHWYQQKPGQAPRLLIYYASQSISGIPARFSGSGSGTDFTLTISSLEPEDFAVYYCQQGYSFPYTFGGGTKLEIKR | 121 pM | – | – | Ratio ELISA binding TPP-13211/TPP-19068 [3]: 0.19
11 | TPP-17755 (antibody, human IgG1, lambda, V domains shown, also called Samsung; Samsung Prior Art F11) VH: EVQLLESGGGLVQTGGSLRLSCAASGFTFSDYAMSWVRQAPGKGLEWVSWIYYDSGSKYYADSVKGRFTISRDNSKNTLYLQMNSLRAEDTAVYYCAKLNGDFDYWGQGTLVTVSS VL: QSVLTQPPSASGTPGQRVTISCSGSSSNIGNNDVSWYQQLPGTAPKLLIYADSHRPSGVPDRFSGSKSGTSASLAISGLRSEDEADYYCGAWDSSLSGYVFGGGTKLTVLG | 2790 pM | 52.7 nM | – | Kd [2]: 6.2 nM
12 | TPP-15374 (antibody, human IgG1, lambda, V domains shown, human IgG1; also called IgG1, hit from panning; parental mAb) VH: EVQLLESGGGLVQPGGSLRLSCAASGFTFSSYEMNWVRQAPGKGLEWVSGISWNSGSIGYADSVKGRFTISRDNSKNTLYLQMNSLRAEDTAVYYCARSGYSSSWFDPDFDYWGQGTLVTVSS VL: QSVLTQPPSASGTPGQRVTISCTGSSSNIGAGYDVHWYQQLPGTAPKLLIYGNSNRPSGVPDRFSGSKSGTSASLAISGLRSEDEADYYCSSYAGSNPYVVFGGGTKLTVLG | – | 8.13 nM | – | –
13 | TPP-23337 (antibody, human IgG4 S228P, lambda, V domains shown) VH: EVQLLESGGGLVQPGGSLRLSCAASGFTFSSYAMSWVRQAPGKGLEWVSAIGYGGDTYYADSVKGRFTISRDNSKNTLYLQMNSLRAEDTAVYYCARRDDYTSRDAFDYWGQGTLVTVSS VL: not shown | – | 2.12 nM | 170 pM | –
14 | TPP-23334 (antibody, human IgG4 S228P, lambda, V domains shown) VH: EVQLLESGGGLVQPGGSLRLSCAASGFTFSSYAMSWVRQAPGKGLEWVSAIGYGGDTYYADSVKGRFTISRDNSKNTLYLQMNSLRAEDTAVYYCARRDDYTSRDAFDYWGQGTLVTVSS VL: not shown | – | 2.24 nM | 120 pM | –
15 | TPP-23340 (antibody, human IgG4 S228P, lambda, V domains shown) VH: EVQLLESGGGLVQPGGSLRLSCAASGFTFSSYAMSWVRQAPGKGLEWVSAIGYGGDTYYADSVKGRFTISRDNSKNTLYLQMNSLRAEDTAVYYCARRDDYTSRDAFDYWGQGTLVTVSS VL: not shown | – | – | 180 pM | –
